Data taken from publication doi:10.1101/2025.10.04.680452 (bioRxiv, 2025).
Where “and” joins values, the source holds several entries; their conditions need not be identical. Equal values may be shown once.

Molecular target: the molecule itself
Assay: cryo-EM structure

B1: human mitochondrial group I chaperonin mHsp60, wild type (natural protein)
chain: GSAKDVKFGADARALMLQGVDLLADAVAVTMGPKGRTVIIEQSWGSPKVTKDGVTVAKSIDLKDKYKNIGAKLVQDVANNTNEEAGDGTTTATVLARSIAKEGFEKISKGANPVEIRRGVMLAVDAVIAELKKQSKPVTTPEEIAQVATISANGDKEIGNIISDAMKKVGRKGVITVKDGKTLNDELEIIEGMKFDRGYISPYFINTSKGQKCEFQDAYVLLSEKKISSIQSIVPALEIANAHRKPLVIIAEDVDGEALSTLVLNRLKVGLQVVAVKAPGFGDNRKNQLKDMAIATGGAVFGEEGLTLNLEDVQPHDLGKVGEVIVTKDDAMLLKGKGDKAQIEKRIQEIIEQLDVTTSEYEKEKLNERLAKLSDGVAVLKVGGTSDVEVNEKKDRVTDALNATRAAVEEGIVLGGGCALLRCIPALDSLTPANEDQKIGIEIIKRTLKIPAMTIAKNAGVEGSLIVEKIMQSSSEVGYDAMAGDFVNMVEKGIIDPTKVVRTALLDAAGVASLLTTAEVVVTEIPKEEKDPGMGAMGGMGGGMGGGMF
With B1 the “stoichiometry N” value was 7 and 14.
